{"source": "patent US20220372514A1", "about": "(SPYBIOTECH, published 2022)", "molecules": {"B1": {"name": "DogCatcher-NANP18 (other)", "chain": "MAHHHHHHVGTGKLGDIEFIKVNKNDKKPLRGAVFSLQKQHPDYPDIYGAIDQNGTYQNVRTGEDGKLTFKNLSDGKYRLFENSEPAGYKPVQNKPIVAFQIVNGEVRDVTSIVPQGSGGSGGSNANPNANPNANPNANPNANPNANPNANPNANPNANPNANPNANPNANPNANPNANPNANPNANPNANPNANP", "notes": "also called DC-NANP18"}, "B2": {"name": "DogCatcher (designed binder)", "chain": "MGSSHHHHHHSSGLVPRGSHMKLGDIEFIKVNKNDKKPLRGAVFSLQKQHPDYPDIYGAIDQNGTYQNVRTGEDGKLTFKNLSDGKYRLFENSEPAGYKPVQNKPIVAFQIVNGEVRDVTSIVPQ", "notes": "His-tagged DogCatcher expressed in E. coli; forms a spontaneous isopeptide bond with DogTag; also called DC; RrgACatcher"}, "B3": {"name": "DogCatcher-NANP Domain (other)", "chain": "MAHHHHHHVGTGKLGDIEFIKVNKNDKKPLRGAVFSLQKQHPDYPDIYGAIDQNGTYQNVRTGEDGKLTFKNLSDGKYRLFENSEPAGYKPVQNKPIVAFQIVNGEVRDVTSIVPQGSGGSGGSNANPNVDPNANPNVDPNANPNVDPNANPNANPNANPNANPNANPNANPNANPNANPNANPNANPNANPNANPNANPNANPNANPNANPNANPNVDPNANPNANPNANPNANPNANPNANPNANPNANPNANPNANPNANPNANPNANPNANPNANPNANPNANPNANP"}, "B4": {"name": "Biotin-SnoopTagJr (peptide)", "peptide": "GKLGSIEFIKVNK", "modifications": "N-terminal biotin", "notes": "also called SnJr-biotin; Biotinylated SnJr-peptide"}, "B5": {"name": "DogCatcher-NANP9 (other)", "chain": "MAHHHHHHVGTGKLGDIEFIKVNKNDKKPLRGAVFSLQKQHPDYPDIYGAIDQNGTYQNVRTGEDGKLTFKNLSDGKYRLFENSEPAGYKPVQNKPIVAFQIVNGEVRDVTSIVPQGSGGSGGSNANPNANPNANPNANPNANPNANPNANPNANPNANP"}}, "key": {"[1]": {"target": "hexon protein on the viral capsid of Ad5 vectors with SpyTag inserted into HVR loops (loop not specified)", "test": "covalent coupling of SpyCatcher to virions, SDS-PAGE band densitometry (ImageJ)"}, "[2]": {"target": "T1, Ad5-HVR5-DogTag Hexon (human adenovirus serotype 5 (Ad5), UniProt P04133 21-952)", "T1 construct": "also called HVR5DT; Ad5(GFP) HVR5 DogTag"}, "[3]": {"target": "T2, Ad5-HVR2-DogTag Hexon (human adenovirus serotype 5 (Ad5), UniProt P04133 30-952)", "T2 construct": "also called HVR2DT; hexon-DogTag"}, "[4]": {"target": "T1, Ad5-HVR5-DogTag Hexon", "remark": "listed apart in the source"}, "[5]": {"target": "T3, Ad5-HVR1-DogTag Hexon (human adenovirus serotype 5 (Ad5), UniProt P04133 2-952)", "T3 construct": "also called HVR1DT; hexon-DogTag"}, "[6]": {"target": "T1, Ad5-HVR5-DogTag Hexon", "remark": "listed apart in the source"}}, "note": "Read-outs that look alike come from different tables or passages of the source.", "data": [{"molecule": "SpyCatcher (designed binder)", "values": [{"measurement": "% of hexon protein coupled", "setting": "[1]", "value": "> 50", "unit": "%"}]}, {"molecule": "B1", "values": [{"measurement": "binding result", "setting": "[2]", "value": "binds"}]}, {"molecule": "B2", "values": [{"measurement": "coverage of capsid hexon (%)", "setting": "[3]", "value": "> 90", "unit": "%"}, {"measurement": "coverage of capsid hexon (%)", "setting": "[4]", "value": "> 90", "unit": "%"}, {"measurement": "coverage of capsid hexon (%)", "setting": "[5]", "value": "> 90", "unit": "%"}]}, {"molecule": "B3", "values": [{"measurement": "binding result", "setting": "[2]", "value": "binds"}]}, {"molecule": "B4", "values": [{"measurement": "binding result", "setting": "[6]", "value": "binds"}]}, {"molecule": "B5", "values": [{"measurement": "binding result", "setting": "[2]", "value": "binds"}]}]}
